According to PMC7838873, “Purification and Characterization of Recombinant Expressed Apple Allergen Mal d 1” (Methods and Protocols, 2020):

B1: recombinant apple allergen Mal d 1 without polyhistidine-tag (natural protein, apple (Malus domestica), UniProt Q9SYW3 1-159, looked up)
chain: MGVYTFENEFTSEIPPSRLFKAFVLDADNLIPKIAPQAIKQAEILEGNGGPGTIKKITFGEGSQYGYVKHRIDSIDEASYSYSYTLIEGDALTDTIEKISYETKLVACGSGSTIKSISHYHTKGNIEIKEEHVKAGKEKAHGLFKLIESYLKDHPDAYN
notes: n = 159 residues used for the CD calculation; pET-28b(+) vector, NcoI/XhoI, insert 485 bp; also called r-Mal d 1; source: E. coli BL21 star (DE3)pLysS, purified (anion-exchange chromatography, TOYOPEARL SuperQ-650S or GigaCap Q-650M)

How the values were obtained:
[1] = target: recombinant apple allergen Mal d 1 with a C-terminal polyhistidine-tag (apple (Malus domestica)) (UniProt Q9SYW3); test: SDS-PAGE without added reducing agent + in-gel tryptic digestion with HPLC-MS/MS; purified protein after storage at -20 °C, freeze-thawing or freeze-drying (Tris, phosphate or urea buffer); denatured at 95 °C in SDS Laemmli sample buffer, Coomassie stain, band proportions by Fiji; band of higher molecular weight identified by peptides; dimer survives SDS, probably held by a disulfide bridge
[2] = target: the molecule itself; test: as above

Row | Molecule | stoichiometry N [1] | stoichiometry N [2]
1 | recombinant apple allergen Mal d 1 with a C-terminal polyhistidine-tag (from UniProt Q9SYW3 1-159) (natural protein) | 2 | 
2 | B1 |  | 2
